How the values were obtained:
[1] = target: T1, mouse FcγRIII extracellular domain, C-terminal His tag (mouse, UniProt P08508 31-215); experiment: SPR (Biacore T200), antibody captured on Protein L, mFcγR analyte
T1 construct: also called mFcγRIII; mFcgRIII
T1 chain: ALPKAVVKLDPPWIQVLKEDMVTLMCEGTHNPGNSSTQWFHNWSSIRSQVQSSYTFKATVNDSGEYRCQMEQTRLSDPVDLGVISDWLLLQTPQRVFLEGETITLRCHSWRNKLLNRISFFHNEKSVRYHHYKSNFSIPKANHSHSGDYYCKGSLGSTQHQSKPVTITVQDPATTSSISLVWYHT
Experimental: (§1) Each altered antibody was analyzed for its interaction with each Fcγ receptor prepared above using Biacore T100 (GE Healthcare Japan Corp.), Biacore T200 (GE Healthcare Japan Corp.), Biacore A100, or Biacore 4000. The running buffer used was HBS-EP+ (GE Healthcare Japan Corp.). The assay temperature was set to 25° C. The sensor chips used were chips prepared by immobilizing Protein L (ACTIGEN or BioVision) onto Series S Sensor Chip CM5 (GE Healthcare Japan Corp.) or Series S Sensor Chip CM4 (GE Healthcare Japan Corp.) by the amine coupling method.
(§2) In order to calculate the KD value of each altered antibody for FcγR, kinetic analysis was conducted according to the following method: first, the antibody of interest was captured onto any of these chips and allowed to interact with mFcγR diluted with a running buffer. For the obtained sensorgram, the assay results were globally fit into the 1:1 Langmuir binding model using Biacore Evaluation Software to calculate an association rate constant ka (L/mol/s) and a dissociation rate constant kd (1/s). From these values, the dissociation constant KD (mol/L) was calculated.

[2] = target: T2, mouse FcγRII extracellular domain, C-terminal His tag (mouse, UniProt P08101 30-210); experiment: as above
T2 construct: also called mFcγRII; mFcgRII
T2 sequence: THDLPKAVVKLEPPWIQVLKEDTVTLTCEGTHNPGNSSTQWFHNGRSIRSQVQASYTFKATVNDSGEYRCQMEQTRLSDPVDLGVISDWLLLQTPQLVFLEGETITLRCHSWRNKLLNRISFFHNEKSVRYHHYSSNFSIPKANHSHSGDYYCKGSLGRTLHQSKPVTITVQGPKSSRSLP
Experimental: as §1, §2

B1: H237-MB750/MRAL-k0 (antibody, mouse IgG1, kappa)
heavy: QVQLQESGPGLVKPSETLSLTCAVSGHSISHDHAWSWVRQPPGEGLEWIGFISYSGITNYNPSLQGRVTISRDNSKNTLYLQMNSLRAEDTAVYYCARSLARTTAMDYWGEGTLVTVSSAKTTPPSVYPLAPGSAAQTNSMVTLGCLVKGYFPEPVTVTWNSGSLSSGVHTFPAVLQSDLYTLSSSVTVPSSTWPSETVTCNVAHPASSTKVDKKIVPRDCGCKPCICEPNEVELVFIFPPKPKDVLTITLTPKVTCVVVDISKDDPEVQFSWFVDDVEVHTAQTQPREEQFNSTFRSVSELPIMHQDWLNGKEFKCRVNSDAFPAPIEKTISKTKGRPKAPQVYTIPPPKEQMAKDKVSLTCMITDFFPEDITVEWQWNGQPAENYKNTQPIMDTDGSYFVYSKLNVQKSNWEAGNTFTCSVLHEGLHNHHTEKSLSHSPGK
light: not shown
notes: copies: 2 + 2
Kd [1]: 705 nM | relative mFcγRIII-binding activity (mIgG1 = 1) [1]: 0.4 fold vs H237-mIgG1/MRAL-k0 | Kd [2]: 7.13 nM | relative mFcγRII-binding activity (mIgG1 = 1) [2]: 29.4 fold vs H237-mIgG1/MRAL-k0

B2: H237-MB530/MRAL-k0 (antibody, mouse IgG1, kappa)
heavy: QVQLQESGPGLVKPSETLSLTCAVSGHSISHDHAWSWVRQPPGEGLEWIGFISYSGITNYNPSLQGRVTISRDNSKNTLYLQMNSLRAEDTAVYYCARSLARTTAMDYWGEGTLVTVSSAKTTPPSVYPLAPGSAAQTNSMVTLGCLVKGYFPEPVTVTWNSGSLSSGVHTFPAVLQSDLYTLSSSVTVPSSTWPSETVTCNVAHPASSTKVDKKIVPRDCGCKPCICQPNEVEEVFIFPPKPKDVLTITLTPKVTCVVVDISKDDPEVQFSWFVDDVEVHTAQTQPREEQFNSTFRSVSELPIMHQDWLNGKEFKCRVDSDAFPAPIEKTISKTKGRPKAPQVYTIPPPKEQMAKDKVSLTCMITDFFPEDITVEWQWNGQPAENYKNTQPIMDTDGSYFVYSKLNVQKSNWEAGNTFTCSVLHEGLHNHHTEKSLSHSPGK
light: not shown
notes: copies: 2 + 2
Kd [1]: 35.1 nM | relative mFcγRIII-binding activity (mIgG1 = 1) [1]: 8 fold vs H237-mIgG1/MRAL-k0 | Kd [2]: 0.337 nM | relative mFcγRII-binding activity (mIgG1 = 1) [2]: 623 fold vs H237-mIgG1/MRAL-k0

B3: H237-MB527/MRAL-k0 (antibody, mouse IgG1, kappa)
heavy: QVQLQESGPGLVKPSETLSLTCAVSGHSISHDHAWSWVRQPPGEGLEWIGFISYSGITNYNPSLQGRVTISRDNSKNTLYLQMNSLRAEDTAVYYCARSLARTTAMDYWGEGTLVTVSSAKTTPPSVYPLAPGSAAQTNSMVTLGCLVKGYFPEPVTVTWNSGSLSSGVHTFPAVLQSDLYTLSSSVTVPSSTWPSETVTCNVAHPASSTKVDKKIVPRDCGCKPCICQPNEVEEVFIFPPKPKDVLTITLTPKVTCVVVDISKDDPEVQFSWFVDDVEVHTAQTQPREEQFNLTFRSVSELPIMHQDWLNGKEFKCRVDSAAFPAPIEKTISKTKGRPKAPQVYTIPPPKEQMAKDKVSLTCMITDFFPEDITVEWQWNGQPAENYKNTQPIMDTDGSYFVYSKLNVQKSNWEAGNTFTCSVLHEGLHNHHTEKSLSHSPGK
light: not shown
notes: copies: 2 + 2
Kd [1]: 51 nM | relative mFcγRIII-binding activity (mIgG1 = 1) [1]: 5.5 fold vs H237-mIgG1/MRAL-k0 | Kd [2]: 0.768 nM | relative mFcγRII-binding activity (mIgG1 = 1) [2]: 273 fold vs H237-mIgG1/MRAL-k0

B4: H237-MB533/MRAL-k0 (antibody, mouse IgG1, kappa)
heavy: QVQLQESGPGLVKPSETLSLTCAVSGHSISHDHAWSWVRQPPGEGLEWIGFISYSGITNYNPSLQGRVTISRDNSKNTLYLQMNSLRAEDTAVYYCARSLARTTAMDYWGEGTLVTVSSAKTTPPSVYPLAPGSAAQTNSMVTLGCLVKGYFPEPVTVTWNSGSLSSGVHTFPAVLQSDLYTLSSSVTVPSSTWPSETVTCNVAHPASSTKVDKKIVPRDCGCKPCICQPNEVEEVFIFPPKPKDVLTITLTPKVTCVVVDISKDDPEVQFSWFVDDVEVHTAQTQPREEQFNLTFRSVSELPIMHQDWLNGKEFKCRVDSDAFPAPIEKTISKTKGRPKAPQVYTIPPPKEQMAKDKVSLTCMITDFFPEDITVEWQWNGQPAENYKNTQPIMDTDGSYFVYSKLNVQKSNWEAGNTFTCSVLHEGLHNHHTEKSLSHSPGK
light: not shown
notes: copies: 2 + 2
Kd [1]: 39 nM | relative mFcγRIII-binding activity (mIgG1 = 1) [1]: 7.2 fold vs H237-mIgG1/MRAL-k0 | Kd [2]: 0.534 nM | relative mFcγRII-binding activity (mIgG1 = 1) [2]: 394 fold vs H237-mIgG1/MRAL-k0

B5: H237-MB532/MRAL-k0 (antibody, mouse IgG1, kappa)
heavy: QVQLQESGPGLVKPSETLSLTCAVSGHSISHDHAWSWVRQPPGEGLEWIGFISYSGITNYNPSLQGRVTISRDNSKNTLYLQMNSLRAEDTAVYYCARSLARTTAMDYWGEGTLVTVSSAKTTPPSVYPLAPGSAAQTNSMVTLGCLVKGYFPEPVTVTWNSGSLSSGVHTFPAVLQSDLYTLSSSVTVPSSTWPSETVTCNVAHPASSTKVDKKIVPRDCGCKPCICQPNEVEEVFIFPPKPKDVLTITLTPKVTCVVVDISKDDPEVQFSWFVDDVEVHTAQTQPREEQFNSTFRSVSELPIMHQDWLNGKEFKCRVNSDAFPAPIERTISKTKGRPKAPQVYTIPPPKEQMAKDKVSLTCMITDFFPEDITVEWQWNGQPAENYKNTQPIMDTDGSYFVYSKLNVQKSNWEAGNTFTCSVLHEGLHNHHTEKSLSHSPGK
light: not shown
notes: copies: 2 + 2
Kd [1]: 45.4 nM | relative mFcγRIII-binding activity (mIgG1 = 1) [1]: 6.2 fold vs H237-mIgG1/MRAL-k0 | Kd [2]: 0.639 nM | relative mFcγRII-binding activity (mIgG1 = 1) [2]: 329 fold vs H237-mIgG1/MRAL-k0

B6: H237-MB515/MRAL-k0 (antibody, mouse IgG1, kappa)
heavy: QVQLQESGPGLVKPSETLSLTCAVSGHSISHDHAWSWVRQPPGEGLEWIGFISYSGITNYNPSLQGRVTISRDNSKNTLYLQMNSLRAEDTAVYYCARSLARTTAMDYWGEGTLVTVSSAKTTPPSVYPLAPGSAAQTNSMVTLGCLVKGYFPEPVTVTWNSGSLSSGVHTFPAVLQSDLYTLSSSVTVPSSTWPSETVTCNVAHPASSTKVDKKIVPRDCGCKPCICEPNEVEMVFIFPPKPKDVLTITLTPKVTCVVVDISKDDPEVQFSWFVDDVEVHTAQTQPREEQFNSTFRSVSELPIMHQDWLNGKEFKCRVNSAAFPAPIEKTISKTKGRPKAPQVYTIPPPKEQMAKDKVSLTCMITDFFPEDITVEWQWNGQPAENYKNTQPIMDTDGSYFVYSKLNVQKSNWEAGNTFTCSVLHEGLHNHHTEKSLSHSPGK
light: not shown
notes: copies: 2 + 2
Kd [1]: 214 nM | relative mFcγRIII-binding activity (mIgG1 = 1) [1]: 1.3 fold vs H237-mIgG1/MRAL-k0 | Kd [2]: 1.53 nM | relative mFcγRII-binding activity (mIgG1 = 1) [2]: 137 fold vs H237-mIgG1/MRAL-k0

B7: H237-MB531/MRAL-k0 (antibody, mouse IgG1, kappa)
heavy: QVQLQESGPGLVKPSETLSLTCAVSGHSISHDHAWSWVRQPPGEGLEWIGFISYSGITNYNPSLQGRVTISRDNSKNTLYLQMNSLRAEDTAVYYCARSLARTTAMDYWGEGTLVTVSSAKTTPPSVYPLAPGSAAQTNSMVTLGCLVKGYFPEPVTVTWNSGSLSSGVHTFPAVLQSDLYTLSSSVTVPSSTWPSETVTCNVAHPASSTKVDKKIVPRDCGCKPCICQPNEVEEVFIFPPKPKDVLTITLTPKVTCVVVDISKDDPEVQFSWFVDDVEVHTAQTQPREEQFNSTFRSVSELPIMHQDWLNGKEFKCRVDSAAFPAPIERTISKTKGRPKAPQVYTIPPPKEQMAKDKVSLTCMITDFFPEDITVEWQWNGQPAENYKNTQPIMDTDGSYFVYSKLNVQKSNWEAGNTFTCSVLHEGLHNHHTEKSLSHSPGK
light: not shown
notes: copies: 2 + 2
Kd [1]: 85 nM | relative mFcγRIII-binding activity (mIgG1 = 1) [1]: 3.3 fold vs H237-mIgG1/MRAL-k0 | Kd [2]: 0.918 nM | relative mFcγRII-binding activity (mIgG1 = 1) [2]: 229 fold vs H237-mIgG1/MRAL-k0

B8: H237-MB476/MRAL-k0 (antibody, mouse IgG1, kappa)
heavy: QVQLQESGPGLVKPSETLSLTCAVSGHSISHDHAWSWVRQPPGEGLEWIGFISYSGITNYNPSLQGRVTISRDNSKNTLYLQMNSLRAEDTAVYYCARSLARTTAMDYWGEGTLVTVSSAKTTPPSVYPLAPGSAAQTNSMVTLGCLVKGYFPEPVTVTWNSGSLSSGVHTFPAVLQSDLYTLSSSVTVPSSTWPSETVTCNVAHPASSTKVDKKIVPRDCGCKPCICQPNEVEEVFIFPPKPKDVLTITLTPKVTCVVVDISKDDPEVQFSWFVDDVEVHTAQTQPREEQFNSTFRSVSELPIMHQDWLNGKEFKCRVNSAAFPAPIEKTISKTKGRPKAPQVYTIPPPKEQMAKDKVSLTCMITDFFPEDITVEWQWNGQPAENYKNTQPIMDTDGSYFVYSKLNVQKSNWEAGNTFTCSVLHEGLHNHHTEKSLSHSPGK
light: not shown
notes: copies: 2 + 2
Kd [1]: 107 nM | relative mFcγRIII-binding activity (mIgG1 = 1) [1]: 2.6 fold vs H237-mIgG1/MRAL-k0 | Kd [2]: 0.804 nM | relative mFcγRII-binding activity (mIgG1 = 1) [2]: 261 fold vs H237-mIgG1/MRAL-k0

B9: H237-MB529/MRAL-k0 (antibody, mouse IgG1, kappa)
heavy: QVQLQESGPGLVKPSETLSLTCAVSGHSISHDHAWSWVRQPPGEGLEWIGFISYSGITNYNPSLQGRVTISRDNSKNTLYLQMNSLRAEDTAVYYCARSLARTTAMDYWGEGTLVTVSSAKTTPPSVYPLAPGSAAQTNSMVTLGCLVKGYFPEPVTVTWNSGSLSSGVHTFPAVLQSDLYTLSSSVTVPSSTWPSETVTCNVAHPASSTKVDKKIVPRDCGCKPCICQPNEVEEVFIFPPKPKDVLTITLTPKVTCVVVDISKDDPEVQFSWFVDDVEVHTAQTQPREEQFNLTFRSVSELPIMHQDWLNGKEFKCRVNSAAFPAPIERTISKTKGRPKAPQVYTIPPPKEQMAKDKVSLTCMITDFFPEDITVEWQWNGQPAENYKNTQPIMDTDGSYFVYSKLNVQKSNWEAGNTFTCSVLHEGLHNHHTEKSLSHSPGK
light: not shown
notes: copies: 2 + 2
Kd [1]: 47.6 nM | relative mFcγRIII-binding activity (mIgG1 = 1) [1]: 5.9 fold vs H237-mIgG1/MRAL-k0 | Kd [2]: 0.745 nM | relative mFcγRII-binding activity (mIgG1 = 1) [2]: 282 fold vs H237-mIgG1/MRAL-k0

Reference: patent US20150203577A1 (Chugai, published 2015)
